{"source": "the supplement of paper PMC12042874", "note": "± gives the uncertainty stated by the source."}
{"test": "amyloid nucleation score (Sup35N fusion, yeast selection) (log enrichment); library NNK1; higher = more nucleation; inactive = no reads after selection", "outline": "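Growth for 7 days at 30°C on medium lacking adenine and uracil followed a 24-hour induction with 100 μM copper sulfate of psi-negative yeast expressing peptides of 20 random codons fused to Sup35N. Input and output plasmid inserts were sequenced with Illumina, and sequences with under 100 input reads were excluded. Nucleation score is the DiMSum log enrichment of output over input reads, centred on the mode score of non-aggregating sequences.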"}
{"substance": "SHFGNPLKIPVFNRWTQHKA", "amyloid nucleation score": "-0.263 ± 0.49"}
{"substance": "SHFLF", "amyloid nucleation score": "0.93 ± 0.7"}
{"substance": "SHLCLAMVVRGV", "amyloid nucleation score": "0.507 ± 0.56"}
{"substance": "SHLGVMLNIRYNKSPQTTAP", "amyloid nucleation score": "2.1 ± 0.41"}
{"substance": "SHLTRDSILRVRVCWTNCVQ", "amyloid nucleation score": "-0.026 ± 0.59"}
{"substance": "SHPRTYPWDSTDFVWLS", "amyloid nucleation score": "-0.549 ± 1.2"}
{"substance": "SHQVVGGLLTYSVWCKCLGC", "amyloid nucleation score": "3.92 ± 0.059"}
{"substance": "SHRWWIM", "amyloid nucleation score": "-0.597 ± 1.1"}
{"substance": "SHSFPGMWTDDTSALASREK", "amyloid nucleation score": "0.306 ± 0.59"}
{"substance": "SHSGFTCTCWCMALLYGVAS", "amyloid nucleation score": "1.22 ± 0.63"}
{"substance": "SHSLHLESSASSLTR", "amyloid nucleation score": "-1 ± 0.51"}
{"substance": "SHTRQ", "amyloid nucleation score": "-0.223 ± 0.91"}
{"substance": "SHYSSIVYGAMEDSGL", "amyloid nucleation score": "-1.6 ± 2.4"}
{"substance": "SIFIAGWGCISYKRRVACFR", "amyloid nucleation score": "inactive"}
{"substance": "SIFSSSEVGVQLYTMGG", "amyloid nucleation score": "0.91 ± 0.62"}
{"substance": "SIFVG", "amyloid nucleation score": "0.353 ± 1.2"}
{"substance": "SIHVVYNPTFQMNCYTFRLS", "amyloid nucleation score": "7.888 ± 0.05"}
{"substance": "SILETLGLAFVK", "amyloid nucleation score": "-0.41 ± 0.57"}
{"substance": "SILGRWDHDLWNLFGARSLV", "amyloid nucleation score": "-0.148 ± 0.89"}
{"substance": "SILQFALLMNSRDLVHRGYF", "amyloid nucleation score": "3.38 ± 0.17"}
{"substance": "SIMLADYPIHLVSNTPRMVL", "amyloid nucleation score": "0.809 ± 0.82"}
{"substance": "SINLCGLWKVYYILAFMW", "amyloid nucleation score": "-2.26 ± 2.4"}
{"substance": "SIPIVL", "amyloid nucleation score": "0.267 ± 0.35"}
{"substance": "SIRLHS", "amyloid nucleation score": "2.65 ± 0.31"}
{"substance": "SITMGQS", "amyloid nucleation score": "-0.546 ± 0.46"}
{"substance": "SIVETAVVSKYVERSYGQEG", "amyloid nucleation score": "-0.437 ± 0.36"}
{"substance": "SIVGWCICLREFSVRFSYAE", "amyloid nucleation score": "5.48 ± 0.075"}
{"substance": "SIWCGRYIIMESVGTPLRSR", "amyloid nucleation score": "0.438 ± 0.8"}
{"substance": "SIWVIRPAAGKSEGSISNVQ", "amyloid nucleation score": "0.531 ± 0.5"}
{"substance": "SKDCNKWVRPRHGLYRFGGF", "amyloid nucleation score": "0.071 ± 0.34"}
{"substance": "SKFNAIMNCDVIKRSLNCIN", "amyloid nucleation score": "0.022 ± 0.3"}
{"substance": "SKLLHMEWNQELDPSLSLLS", "amyloid nucleation score": "-1.14 ± 0.66"}
{"substance": "SKLMRVVCVVISVAYTWNEE", "amyloid nucleation score": "0.188 ± 0.32"}
{"substance": "SKSGLGYTGHLLVREREVVV", "amyloid nucleation score": "0.474 ± 1"}
{"substance": "SKSLKYICMYFQHTNSLASI", "amyloid nucleation score": "0.241 ± 1.2"}
{"substance": "SKSYVM", "amyloid nucleation score": "0.468 ± 0.29"}
{"substance": "SKVVGGESKVQ", "amyloid nucleation score": "1.05 ± 0.6"}
{"substance": "SLDLFSIKATRSDWSGFLRT", "amyloid nucleation score": "-0.613 ± 0.94"}
{"substance": "SLEWLESCFSDAHIHTAH", "amyloid nucleation score": "-0.733 ± 1.9"}
{"substance": "SLFATGN", "amyloid nucleation score": "inactive"}
{"substance": "SLFKRILYHVSGFRYCCTSV", "amyloid nucleation score": "-1.01 ± 1"}
{"substance": "SLFQYWDVRDVESTFSVCNC", "amyloid nucleation score": "6.339 ± 0.047"}
{"substance": "SLGLNMFGLLCSNFQSVRVK", "amyloid nucleation score": "0.129 ± 0.53"}
{"substance": "SLGVSDI", "amyloid nucleation score": "-1.16 ± 0.41"}
{"substance": "SLHCLMFVCSFRVSFEDWGE", "amyloid nucleation score": "4.77 ± 0.13"}
{"substance": "SLKDVPISCFNYMHC", "amyloid nucleation score": "4.39 ± 0.094"}
{"substance": "SLKMEDFKKNSKMRMDFINH", "amyloid nucleation score": "1.85 ± 0.19"}
{"substance": "SLLALLPLQYWVYRIKNLVH", "amyloid nucleation score": "-0.057 ± 1.5"}
{"substance": "SLLCWKLAVHQLGMIGNIYS", "amyloid nucleation score": "-0.452 ± 0.47"}
{"substance": "SLLNRVGLWRRSSLCLMTGC", "amyloid nucleation score": "0.538 ± 0.26"}
{"substance": "SLLSAMDLPPFLSYRLSPRW", "amyloid nucleation score": "0.059 ± 1.2"}
{"substance": "SLLSFCQSSRVTESSMAYCT", "amyloid nucleation score": "inactive"}
{"substance": "SLLTWFREYVDYTLYQWPGY", "amyloid nucleation score": "-0.131 ± 0.76"}
{"substance": "SLNPALFTVSYPLVMLENDT", "amyloid nucleation score": "0.19 ± 0.29"}
{"substance": "SLNSTFFCIEISVDDIEVLQ", "amyloid nucleation score": "-0.609 ± 0.52"}
{"substance": "SLPSNHTVLWTVWMMVFGAR", "amyloid nucleation score": "-1.09 ± 0.96"}
{"substance": "SLSFTEVGRNRLSWRSAHSK", "amyloid nucleation score": "-0.616 ± 1.7"}
{"substance": "SLSNCTGKNVLVTLS", "amyloid nucleation score": "0.428 ± 1.2"}
{"substance": "SLSRCMIYDYR", "amyloid nucleation score": "inactive"}
{"substance": "SLSRLRHNSFWQRTFAMLVS", "amyloid nucleation score": "inactive"}
{"substance": "SLTDAEGSWLHRSWVKWNRC", "amyloid nucleation score": "-0.208 ± 0.62"}
{"substance": "SLVLVYGFWELYLW", "amyloid nucleation score": "0.689 ± 0.84"}
{"substance": "SLVTDCYVPGFLYAMVIHAG", "amyloid nucleation score": "1.01 ± 0.45"}
{"substance": "SLVYQYIVLCTV", "amyloid nucleation score": "-1.47 ± 1.2"}
{"substance": "SLWFTYCQ", "amyloid nucleation score": "0.751 ± 0.38"}
{"substance": "SLYAQVCWRSVEFYPRLFPE", "amyloid nucleation score": "2.26 ± 0.12"}
{"substance": "SLYLYMGWPSHWVESVLPYG", "amyloid nucleation score": "0.043 ± 0.89"}
{"substance": "SLYVYISRFMTLMGCLTVNH", "amyloid nucleation score": "0.575 ± 0.35"}
{"substance": "SMCNCDPSVALRSMY", "amyloid nucleation score": "-0.279 ± 0.25"}
{"substance": "SMDLLRDLSVDKWAFF", "amyloid nucleation score": "0.133 ± 0.33"}
{"substance": "SMFGFTYIVGRMDGSIGWSL", "amyloid nucleation score": "0.647 ± 0.22"}
{"substance": "SMFRAFKGYLWGNCSREAQR", "amyloid nucleation score": "0.026 ± 0.25"}
{"substance": "SMFRVYYSGGQLQ", "amyloid nucleation score": "4.75 ± 0.058"}
{"substance": "SMGQHHMGGWVYGRKAEKLS", "amyloid nucleation score": "-0.185 ± 0.37"}
{"substance": "SMIGCYMTF", "amyloid nucleation score": "0.073 ± 0.36"}
{"substance": "SMKWSLYLQCRIMYIQTDSR", "amyloid nucleation score": "3.21 ± 0.12"}
{"substance": "SMMSGCGTGVAPKAWSGDGW", "amyloid nucleation score": "0.974 ± 0.62"}
{"substance": "SMPCQWR", "amyloid nucleation score": "0.503 ± 0.51"}
{"substance": "SMQQVSTSVQKVMDAYHWGW", "amyloid nucleation score": "0.554 ± 0.79"}
{"substance": "SMQSSVDYKRGAMTFI", "amyloid nucleation score": "0.424 ± 0.69"}
{"substance": "SMRLGKTIAVLVINEHGMLQ", "amyloid nucleation score": "2.17 ± 0.11"}
{"substance": "SMTLMWTTPSSYIAWI", "amyloid nucleation score": "-0.792 ± 0.48"}
{"substance": "SMWKWDQKGKDNGTKNNKRL", "amyloid nucleation score": "-0.939 ± 0.8"}
{"substance": "SMYFSHVSPFVWRSYCFLVC", "amyloid nucleation score": "inactive"}
{"substance": "SNFMGQD", "amyloid nucleation score": "0.733 ± 0.7"}
